Source: paper PMC4745047, “Tuned by metals: the TET peptidase activity is controlled by 3 metal binding sites” (Scientific Reports, 2016)

Columns and labels:
Glu207 = Glu207 (UniProt position 207, VASVQEEIGLR); assay: kinetics; details: not given for the pH series (standard assay: KCl 316 mM), not given for the pH series (standard assay: 0.1 M HEPES pH 7.2)
[1] = target: T1, PfTET3 (TET3 aminopeptidase; PfTET3Zn) (Pyrococcus furiosus, UniProt Q8TZW4); assay: Lys-pNA hydrolysis, pNA release at […] nm, EDTA titration, biphasic fit; format: biochemical; details: 85 °C; 5 mM Lys-pNA; 0.1 M HEPES pH 7.2, 316 mM KCl; 10 nM enzyme; metal chelation (M1 Zn2+ removal), not direct binding; first site of two; partial step; read-out: EC50_1
T1 construct: gene PF1861; Recombinant, pET-41c; purified as for PhTET3; homododecamer (about 500 kDa); as purified contains two Zn2+ per active site
T1 sequence (Q8TZW4 1-346): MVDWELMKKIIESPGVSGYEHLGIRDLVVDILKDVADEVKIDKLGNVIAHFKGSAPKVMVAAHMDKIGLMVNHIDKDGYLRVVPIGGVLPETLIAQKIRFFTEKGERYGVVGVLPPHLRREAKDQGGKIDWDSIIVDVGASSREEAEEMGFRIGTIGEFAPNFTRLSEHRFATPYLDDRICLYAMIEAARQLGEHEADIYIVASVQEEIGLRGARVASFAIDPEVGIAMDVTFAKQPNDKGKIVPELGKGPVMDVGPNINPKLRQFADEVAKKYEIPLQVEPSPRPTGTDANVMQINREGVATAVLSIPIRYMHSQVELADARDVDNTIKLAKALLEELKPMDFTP

Row | EC50 [1] | Molecule | pKa (Glu207; 20 °C, PfTET3Co: 300 uM Co2+ present (Co2+ in M1 and M3, Zn2+ in M2)) | pKa (Glu207; 20 °C, PfTET3Zn: as purified, Zn2+ in M1 and M2, no Co2+ added) | pKa (Glu207; 85 °C, PfTET3Co: 300 uM Co2+ present (Co2+ in M1 and M3, Zn2+ in M2)) | pKa (Glu207; 85 °C, PfTET3Zn: as purified, Zn2+ in M1 and M2, no Co2+ added)
1 | – | TET3 aminopeptidase (PfTET3; lysine-specific tetrahedral aminopeptidase) (Pyrococcus furiosus) | 5.6 | 5.9 | 4.45 | 4.75
2 | 13 µM | O=C(O)CN(CCN(CC(=O)O)CC(=O)O)CC(=O)O [EDTA] | – | – | – | –
